Experimental data taken from publication PMC6350010.

Molecular target: Wild-type Aβ (1–40) peptide
Assay: single-molecule fluorescence burst analysis

Atto655-Aβ40 (peptide)
mean of the oligomer size distribution, μ1 (relative photon number N phot,rel): 7.4 N¯phot,mon
